The values that follow come from patent US11421026B2, “Antibodies that bind human cannabinoid 1 (CB1) receptor” (BIRD ROCK BIO, Inc., priority 2015, dated 2022).

Assay [1] deals with CB1 receptor signaling, WIN55,212 induced ERK phosphorylation in Trex-CHO CB1 receptor cells. Description: ERK activation assay (western blot). It is filed as cell-based, human. The settings on record: IgG 300 nM; WIN55,212 100 nM, 10 and 15 minutes. On the procedure:
Two days before the experiment, Trex-CHO CB1 receptor cells were seeded at 500,000 cells/well into 6-well plates. 1 μg/mL tetracycline was used to induce CB1 receptor expression after 24 hours. Cells were serum starved for at least two hours before the experiment. […] Cell lysates were harvested and the level of ERK activation was determined by western blot. Anti-ERK and Anti-phospho-specific ERK antibodies were obtained from Cell Signaling Inc.
Two days before the experiment, Trex-CHO CB1 receptor-expressing cells were seeded at 500,000 cells/well into 6-well plates. 1 μg/mL tetracycline was used to induce CB1 receptor expression after 24 hours. Cells were serum starved for at least two hours before the experiment. […] Cell lysates were harvested and the level of ERK activation was determined by western blot. Anti-ERK and Anti-phospho-specific ERK antibodies were obtained from Cell Signaling Inc.
A general note: A western blot detects proteins with antibodies after separation by electrophoresis.

The target of assay [2] is T1, human CB1 expressing TRex-CHO cells (Homo sapiens, UniProt P21554).
T1 construct: pcDNA4/TO native full length human CB1 receptor construct was transfected into tetracycline inducible system Trex-CHO and Trex-293 cells; expressed in transfected cells
The format is cell-based. As to conditions: forskolin stimulated TRex-CHO CB1 cells.
Method: Data analysis was performed using GraphPad Prism software.
Data analysis was performed using GraphPad Prism.

Assay [3] concerns denatured CB1 protein (His tagged, N/C-termini truncated human CB1). As to the kind of experiment: Western blot recognition of denatured CB1 protein. It is filed as binding. As to conditions: 2 μg/mL. On the procedure: A study was performed to examine whether PA13R3-P1C4 and its humanized variant antibodies recognize epitope(s) on denatured CB1 protein (His tagged, N/C-termini truncated CB1) by western blot analysis. Purified human CB1 protein (750 ng per lane) was mixed with SDS reducing buffer containing beta-mercaptoethanol (Double Helix). […] Membranes were blocked with 5% NFDM/PBS-T for one hour at 22° C. followed by immune-blotting with test antibodies (2 μg/mL) in 5% NFDM/PBS-T overnight at 4° C. Commercial mouse anti-His antibody and mouse anti-CB1 antibody (R&D Systems) were used as positive controls, and rabbit anti-CB1 antibody (Cayman), which recognizes a C-terminal region that was deleted from the recombinant CB1 protein used in this study, served as a negative control.
After overnight incubation, membranes were washed with 0.5% Tween-20 PBS (PBS-T) three times at 22° C. Secondary antibodies AP-conjugated anti-human IgG (1:5000) or anti-mouse IgG or anti-rabbit IgG in 5% NFDM/PBS-T were added to respective membranes and incubated for 1 hour at 22° C. Membranes were washed three times with PBS-T each for 5 minutes. After the final wash, signal was developed by incubating with NBT/BCIP substrate solution at 22° C. and the reaction was stopped by washing the membrane under running water.

The target of assay [4] is T2, CB1 (TRex-CHO cells stably expressing human CB1) (Homo sapiens, UniProt P21554).
T2 construct: pcDNA4/TO native full length human CB1 receptor construct was transfected into tetracycline inducible system Trex-CHO and Trex-293 cells; expressed in transfected cells
It is filed as cell-based.
Method: A cAMP functional assay was performed to measure the antagonism of the antibodies. […] Data analysis was performed using GraphPad Prism.
Cell numbers, forskolin concentration and CP55,940 concentration were optimized according to the manufacturer's instructions. The cAMP antagonist functional assay was performed in white 384-well low volume plates (Greiner). […] Data analysis was performed using GraphPad Prism.
Data analysis was performed using GraphPad Prism. The mean±SD of IC50s and dissociation constants (Kd) shown were measured from at least 2 different experiments.
After 30 minutes incubation at 22° C., 5 μL cAMP-d2 and 5 μL anti-cAMP cryptate were added to the cells and incubated for 1 hour. […] Data analysis was performed using GraphPad Prism.

Assay [5] concerns the target T3, CB1 surface expression (CB1 TRex-CHO / TRex-293 cells) (Homo sapiens, UniProt P21554).
T3 construct: pcDNA4/TO native full length human CB1 receptor construct was transfected into tetracycline inducible system Trex-CHO and Trex-293 cells; expressed in transfected cells; tetracycline induced
It is filed as cell-based. As to conditions: tetracycline induced, humanized variants.

For assay [6], the target named is CB1 receptor (TRex-CHO CB1 cells) (Homo sapiens, UniProt P21554). Description: Flow cytometry binding of P1C4 Fab. On the procedure: To determine PA13R3-P1C4 Fab binding affinity, full binding curves were generated on CB1 receptor by testing a range of concentrations using TRex-CHO cells stably transfected with tetracycline inducible CB1 expression construct by flow cytometry. Three-fold serial dilutions from 3 μM to 0.1 μM were prepared. FITC-conjugated anti-human antibody was used to detect PA13R3-P1C4 Fab.
For orientation: Flow cytometry measures light scatter and fluorescence of single cells or particles in a stream.

T1 sequence (P21554 whole entry): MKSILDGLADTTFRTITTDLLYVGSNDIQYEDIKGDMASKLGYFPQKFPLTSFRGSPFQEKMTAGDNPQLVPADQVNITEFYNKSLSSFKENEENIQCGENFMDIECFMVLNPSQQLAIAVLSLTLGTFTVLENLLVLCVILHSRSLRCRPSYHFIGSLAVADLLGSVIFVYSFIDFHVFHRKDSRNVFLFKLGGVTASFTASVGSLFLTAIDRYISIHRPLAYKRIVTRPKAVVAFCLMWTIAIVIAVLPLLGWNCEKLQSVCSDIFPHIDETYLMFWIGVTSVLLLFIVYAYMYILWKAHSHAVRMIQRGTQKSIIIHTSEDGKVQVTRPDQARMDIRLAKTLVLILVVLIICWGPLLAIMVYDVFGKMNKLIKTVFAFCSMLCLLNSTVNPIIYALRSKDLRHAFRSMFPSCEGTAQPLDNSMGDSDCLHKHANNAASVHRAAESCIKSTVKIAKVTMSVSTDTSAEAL
T2 sequence (P21554 whole entry): as above
T3 sequence (P21554 whole entry): as above
CB1 receptor (TRex-CHO CB1 cells), sequence (P21554 whole entry): as above

B1: 36E12B6C2: hybridoma-derived anti-CB1 mAb; HC variable SEQ ID NO: 18, LC variable SEQ ID NO: 22 (antibody, listed as Mus sp., V domains shown)
VH: QVQLQQSGAELVRPGSSVKISCKASGYEFSYYWMNWVKQRPGQGLQWIGQIYPGDGDTNYNGKFKGKATLTADKSSSTAYMHLTSLTSEDSAVYFCARSGGNPFAFWGQGTLVTVSA
VL: DIQMTQTSSSLSASLGDRVTFSCRASQDISNYLNWYQQKPDGTVKLLIYYTSRLHSGVTSRFRGSGSGTDYSLTISNLEQEDVATYFCQQGHTLPWSFGGGTKLEIK
Take B1: in assay [1], the “block of WIN55,212 induced ERK phosphorylation” value was “blocked”. The “effect on cAMP levels without exogenous agonist / mechanism” value in assay [2] was “inverse agonists”.

B2: PA13R3-P1C4: phage-derived chimeric anti-CB1 IgG; HC variable SEQ ID NO: 2, LC variable SEQ ID NO: 6 (antibody, V domains shown)
VH: EVQLQQSGAELVRPGVSVKISCKASGYEFSYYWMNWVKQRPGQGLEWIGQIYPGDGETKYNGKFKGKATLTADKSSNTAYMQLSSLTSEDSAVYFCARSHGNYLPYWGQGTLVTVSA
VL: DIVLTQSPAIMSASLGERVTMTCTASSSVSSSYLHWYQQKPGSSPKLWIYSTSNLASGVPARFSGSGSGTSYSLTISSMEAEDAATYYCHQYHRSPPTFGAGTKLELK
modifications: PA13R3-P1C4 Heavy chain variable region; PA13R3-P1C4 Light chain variable region
Consider B2, for which, in assay [3], the “recognition of denatured CB1 protein” value is “could not recognize denatured and linearized CB1 protein”. The “effect on CP55,940-induced reduction in intracellular cAMP levels” value in assay [4] is recorded as “dose-dependently inhibited”. Moreover, the 50% inhibitory concentration (IC50) in assay [4] (all batches, 5 μM forskolin, 9 nM CP55,940, read-out: cAMP IC50 Mean ± SD) was 138 ± 21 nM. The “block of WIN55,212 induced ERK phosphorylation” value in assay [1] is “blocked”. In addition, the “effect on cAMP levels without exogenous agonist / mechanism” value in assay [2] is given as “inverse agonists”. In addition, the “inhibition of WIN55,212 induced CB1 receptor internalization” value in assay [5] is recorded as “inhibited”.

B3: PA13R3-P1C4 Fab: Fab fragment of chimeric PA13R3-P1C4 (antibody, V domains shown)
VH: EVQLQQSGAELVRPGVSVKISCKASGYEFSYYWMNWVKQRPGQGLEWIGQIYPGDGETKYNGKFKGKATLTADKSSNTAYMQLSSLTSEDSAVYFCARSHGNYLPYWGQGTLVTVSA
VL: DIVLTQSPAIMSASLGERVTMTCTASSSVSSSYLHWYQQKPGSSPKLWIYSTSNLASGVPARFSGSGSGTSYSLTISSMEAEDAATYYCHQYHRSPPTFGAGTKLELK
Take B3: the “binding to TRex-CHO CB1 cells” value in assay [6] is “dose dependently bound”.

The IC50 is the concentration at which inhibition is half-maximal.
